Series [1] concerns the molecule itself. Put plainly: crystal structure.
Series [2] deals with the molecule itself. Put plainly: crystal structure. This is another data set of the same source.

Read-outs that look alike come from different tables or passages of the source.

B1: Plasmodium falciparum lysyl-tRNA synthetase (PfLysRS), residues 77-583 (enzyme)
chain: not shown
On to B1, for which, in series [1], the binding result is “binds”.

B2: Pf-like human LysRS (human LysRS 70-584 with P300T, Q321V, T337S) (enzyme)
chain: not shown
Take B2: the binding result in series [2] is on record as “binds”.

These data come from article PMC4503318 (Chemistry & biology, 2015).
